Data on 3 molecules can be found in patent US20100015637A1 (AbbVie / Abbott, published 2010).

Experiment [1] deals with human PlGF-1 comprising amino acids 1-137 produced in human embryonic kidney cells (human) (UniProt P49763). In words: Format 1 …, capture 2-826-335, detection 1-255-713; sFlt-1 307 pmol/L (ratio 10).
Experiment [2] has the same target. As to the kind of experiment: Format 3 Quantikine ELISA, capture MAb264, detection Pb264; sFlt-1 153 pmol/L (ratio 5).
Experiment [3] shares this target. As to the kind of experiment: Format 3 Quantikine ELISA, capture MAb264, detection Pb264; sFlt-1 4600 pmol/L (ratio 150). (An ELISA detects its analyte on a solid surface through an enzyme-linked reagent.)
The target is the same in experiment [4]. In words: Format 1 …, capture 2-826-335, detection 1-255-713; sFlt-1 613 pmol/L (ratio 20).
The target is the same in experiment [5]. As to the kind of experiment: Format 3 Quantikine ELISA, capture MAb264, detection Pb264; sFlt-1 77 pmol/L (ratio 2.5).
For experiment [6] the target is unchanged. In words: Format 2 …, capture MAb264, detection Pb264; sFlt-1 4600 pmol/L (ratio 150).
The target is the same in experiment [7]. In words: Format 3 Quantikine ELISA, capture MAb264, detection Pb264; sFlt-1 3067 pmol/L (ratio 100).
Experiment [8] shares this target. As to the kind of experiment: Format 2 …, capture MAb264, detection Pb264; sFlt-1 3067 pmol/L (ratio 100).
For experiment [9], the target named is T1, CHO human PlGF-1 fragment (comprising amino acids 17-131; ATCC PTA-8540) (human, UniProt P49763 35-221).
T1 sequence: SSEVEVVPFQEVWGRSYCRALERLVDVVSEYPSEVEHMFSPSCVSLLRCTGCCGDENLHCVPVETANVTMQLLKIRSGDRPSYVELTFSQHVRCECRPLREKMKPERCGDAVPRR
In words: SPR (BIAcore 2000); MAb captured on anti-mouse IgG chip, antigen in solution; 1:1 fit with mass transport. Here is the method:
(§1) First, a ˜5,500 RU rabbit anti-mouse IgG Capture Biosensor was created by amine-coupling rabbit anti-mouse IgG antibody (BIAcore® International AB, a GE Healthcare company, Uppsala, Sweden) to a CM4 biosensor chip (BIAcore® International AB, a GE Healthcare company, Uppsala, Sweden) via EDC/NHS/Ethanolamine chemistry provided in an Amine Coupling Kit (BIAcore® International AB, a GE Healthcare company, Uppsala, Sweden). Human PlGF-1 monoclonal antibodies and human PlGF-1 antigens were diluted into a running buffer (hereinafter “Running Buffer”) composed of HBS-EP buffer (BIAcore® International AB, a GE Healthcare company, Uppsala, Sweden) spiked with 0.1% BSA and 0.1% CM-Dextran.
(§2) After equilibrating the rabbit anti-mouse IgG Capture Biosensor for 5 minutes at 5 μL/minute with Running Buffer, 5 to 10 μL of human PlGF-1 monoclonal antibody was injected over individual flow cells with one flow cell being left blank as a reference flow cell. The flow cells were washed for 6 minutes at 50 μL/minute with Running Buffer before injecting 150 μL of human PlGF-1 or human PlGF-1 fragment antigen at a […] concentration across the biosensor, which was immediately followed by 15 minutes of Running Buffer. The biosensor was regenerated with one 30 μL injections of 10 mM Glycine pH 1.7 (BIAcore® International AB, a GE Healthcare company, Uppsala, Sweden) at a flow rate of 10 μL/minute.

The target of experiment [10] is T2, CHO-sourced human PlGF-1 (comprising amino acids 1-131; ATCC PTA-8537) (human, UniProt P49763 19-221, glycosylated (CHO-expressed)).
T2 sequence: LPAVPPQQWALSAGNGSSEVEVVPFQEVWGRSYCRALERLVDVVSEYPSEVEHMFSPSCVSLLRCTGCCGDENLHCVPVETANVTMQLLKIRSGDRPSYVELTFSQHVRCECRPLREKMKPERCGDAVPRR
The experiment is described as above. The protocol:
as §1, §2

The target of experiment [11] is recombinant human PlGF-1 (comprising amino acids 1-131) expressed in E. coli (R&D Systems) (human) (UniProt P49763). The experiment is described as above.
Experiment [12] has the same target. As to the kind of experiment: … sandwich, capture MAb826, detection pAb264; antigen 60 pg/mL.
For experiment [13], the target named is T3, CHO human PlGF-1 comprising amino acids 1-137 (human PlGF-1-His (1-131), CHO 6305) (human, UniProt P49763 19-221, N-glycans at N21 (completely glycosylated) and N89 (partially glycosylated)).
T3 construct: Mature human PlGF-1 with 6xHis tag (137 amino acids); also called CHO (1-137)
T3 sequence: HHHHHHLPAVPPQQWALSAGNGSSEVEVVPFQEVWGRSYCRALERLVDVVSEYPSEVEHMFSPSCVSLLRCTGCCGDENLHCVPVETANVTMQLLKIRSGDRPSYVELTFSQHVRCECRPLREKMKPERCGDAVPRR
In words: … sandwich, capture MAb826, detection pAb264; antigen 0 pg/mL (blank).

The target in experiment [14] is recombinant human PlGF-1 (comprising amino acids 1-131) expressed in E. coli (R&D Systems) (human) (UniProt P49763). As to the kind of experiment: … sandwich, capture MAb255, detection pAb264; antigen 750 pg/mL.

Broadly, the % Inhibition is the percentage by which the read-out fell short of the control. By Kd is commonly meant the equilibrium constant for the complex coming apart. What is called koff is the rate constant with which the complex falls apart. As usually defined, the kon is the second-order rate constant of association.

“native sFlt-1, isolated from human placental tissue (from UniProt P17948 27-687) (receptor)”: the % Inhibition in experiment [1] stood at 80.7%; in [2], 24.6%; in [3], 81.6%; in experiment [4], 88.3%; in experiment [5], 18.3%; in [6], 96.5%. The % Inhibition in experiment [7] is 80.9%; in experiment [8], 95.7%. The PlGF-1 Measured in experiment [1] came out at 197 pg/mL; in experiment [2], 652 pg/mL; in [3] it was 159 pg/mL; in [4], 120 pg/mL; in experiment [5] it was 707 pg/mL; in experiment [6], 27.5 pg/mL. In addition, the PlGF-1 Measured in [7] was determined as 166 pg/mL; in [8], 33.8 pg/mL.

B1: monoclonal antibody 2-826-335 (produced by murine hybridoma cell line 2-826-335, ATCC PTA-8539) (antibody, mouse IgG1, V domains shown)
VH: QVQLKQSGPGLVQPSQSLSITCTVSGFSLTTYGIHWVRQSPGKGLEWLGVMWSGGDTDYDAAFISRLSISKDNSKSQVFFKMNSLQANDTGIYYCARYRFYGMDYWGQGTSVTVSS
VL: AIQMTQSSSSFSVSLGDRVTITCKASEDIYNRFAWYQQKPGNAPRLLISGAASLEAGVPSRFSGSGSGQDYTLSITSLQTEDVATYYCQQYWSTPWTFGGGTKLEIKR
notes: also called MAb826
As for B1, the Kd in experiment [9] was 0.219 nM; in experiment [10] it was 0.498 nM; in experiment [11], 0.092 nM. Besides, the koff in [9] is 0.000291 s⁻¹; in experiment [10], 0.000325 s⁻¹; in experiment [11], 0.000214 s⁻¹. Moreover, the kon is 1.33e+06 M⁻¹ s⁻¹ in experiment [9], 652000 M⁻¹ s⁻¹ in [10] and 2.34e+06 M⁻¹ s⁻¹ in experiment [11]. The RLU in experiment [12] came out at 65500 RLU; in experiment [13], 6600 RLU.

B2: monoclonal antibody 1-255-713 (produced by murine hybridoma cell line 1-255-713, ATCC PTA-8536) (antibody, mouse IgG2a, V domains shown)
VH: QVHLQQSGAELMKPGASVKISCKATGYTFSSYWIEWVKQRPGHGLEWIGEILPGSVSNNFNEKFKDKATLTADPSSNTAYIQVSSLTSEDSAVYYCARSTGFYYGGNYFDHWGQGTTLAVSS
VL: DVVMTQTPLSLPVSPGDQASISCRSSQSLVHSNGHTYLHWYLQKPGQSPKLLIYKVSNRFSGVPDRVSGSGSGTDFTLKISRVEAEDLGVYFCSQSTHVPPTFGGGTKLEIKR
notes: also called MAb255
B2: the Kd amounted to 0.71 nM in [9], 1.7 nM in experiment [10] and 0.368 nM in experiment [11]. The koff in experiment [9] was found to be 0.000129 s⁻¹; in experiment [10], 0.000123 s⁻¹; in experiment [11] it was 0.000121 s⁻¹. Besides, the results for the kon in experiment [9], in experiment [10] and in experiment [11] were 182000 M⁻¹ s⁻¹, 73000 M⁻¹ s⁻¹ and 329000 M⁻¹ s⁻¹, respectively. For the same molecule, the RLU in experiment [14] worked out at 1.32e+06 RLU.
